Results from the supplement of paper PMC11908140.

B1: library; numbered along this chain (parent)
chain: MRKPRAAVGSGHRKQAASQEGRQKHAKNNSQAKPSACDGLARQPEEVVLQASVSSYHLFRDVAEVTAFRGSLLSWYDQEKRDLPWRRRAEDEMDLDRRAYAVWVSEVMLQQTQVATVINYYTGWMQKWPTLQDLASASLEEVNQLWAGLGYYSRGRRLQEGARKVVEELGGHMPRTAETLQQLLPGVGRYTAGAIASIAFGQATGVVDGNVARVLCRVRAIGADPSSTLVSQQLWGLAQQLVDPARPGDFNQAAMELGATVCTPQRPLCSQCPVESLCRARQRVEQEQLLASGSLSGSPDVEECAPNTGQCHLCLPPSEPWDQTLGVVNFPRKASRKPPREESSATCVLEQPGALGAQILLVQRPNSGLLAGLWEFPSVTWEPSEQLQRKALLQELQRWAGPLPATHLRHLGEVVHTFSHIKLTYQVYGLALEGQTPVTTVPPGARWLTQEEFHTAAVSTAMKKVFRVYQGQQPGTCMGSKRSQVSSPCSRKKPRMGQQVLDNFFRSHISTDAHSLNSAAQ

Variants of: B1
Assay: 8OG:A repair function score (normalized; synonymous = 0, nonsense = -1) (normalized log-likelihood score); higher = more repair activity (WT-like)
Details: with 8OG:A DNA repair reporter (GFP) in HEK-293 MUTYH KO cells
In short: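 Lentiviral MUTYH cDNA NNN codon-scan libraries in HEK-293 MUTYH knockout cells (10 pg/ml doxycycline) were co-transfected with an 8OG:A GFP repair reporter plus mCherry. At 72 h, viable mCherry+ cells were sorted into GFP+ (repair) and GFP− bins, three replicates per tile, then tile amplicons were sequenced. Per-tile Rosace fitness scores became a normalized repair function score anchored on synonymous and nonsense distributions. Synonymous medians were set to 0 and nonsense to -1; variants under 300 counts per million at the start were removed.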

Going from A357E to E79P, the “8OG:A repair function score” value falls from -0.0948 to -0.189.

Compared with R2C, L369F is higher in “8OG:A repair function score” value: -0.529 for the first, 0.0478 for the second.

Going from L369A to P247F, the “8OG:A repair function score” value falls from 0.0443 to -1.01.

Compared with W235H, A513E is higher in “8OG:A repair function score” value: -0.343 for the first, -0.0288 for the second.

First: A162Q
Second: A162F
The “8OG:A repair function score” value of the first is higher: -0.953 for the first, -1.26 for the second.

Compared with A162H, L448Y is higher in “8OG:A repair function score” value: -1.08 for the first, -0.324 for the second.

Compared with L448M, L448A is lower in “8OG:A repair function score” value: 0.207 for the first, -0.105 for the second.

Going from Q397T to Q265Y, the “8OG:A repair function score” value rises from -0.463 to -0.00929.

First: T66N
Second: Q521P
The “8OG:A repair function score” value of the first is lower: -0.0376 for the first, -0.0312 for the second.

First: D61G
Second: T511P
The “8OG:A repair function score” value of the first is higher: 0.00587 for the first, -0.0422 for the second.

First: K333V
Second: Q323T
The “8OG:A repair function score” value of the first is lower: -0.0946 for the first, 0.0271 for the second.

First: S510L
Second: T263V
The “8OG:A repair function score” value of the first is higher: 0.0205 for the first, -0.0463 for the second.

Going from Q239F to T179I, the “8OG:A repair function score” value rises from -0.526 to -0.04.

First: K493G
Second: K493F
The “8OG:A repair function score” value of the first is higher: 0.0135 for the first, -0.0124 for the second.

Compared with L355P, L355C is higher in “8OG:A repair function score” value: -0.132 for the first, -0.0489 for the second.

Compared with W374P, T308H is higher in “8OG:A repair function score” value: -1.01 for the first, -0.0553 for the second.

First: T308Y
Second: E106A
The “8OG:A repair function score” value of the first is higher: -0.0509 for the first, -0.944 for the second.

Going from R336V to R336N, the “8OG:A repair function score” value rises from -0.148 to -0.101.

Going from A457P to E303M, the “8OG:A repair function score” value rises from -0.15 to 0.000479.

Compared with E303P, F504L is higher in “8OG:A repair function score” value: -0.218 for the first, 0.0067 for the second.

Compared with F330Y, S490E is higher in “8OG:A repair function score” value: -0.0696 for the first, -0.0309 for the second.

First: Q310R
Second: V214A
The “8OG:A repair function score” value of the first is higher: -0.0435 for the first, -0.504 for the second.

Compared with P225F, G171W is lower in “8OG:A repair function score” value: -0.222 for the first, -0.633 for the second.

Going from F200G to A461K, the “8OG:A repair function score” value falls from -0.582 to -0.813.

Going from T324E to E382N, the “8OG:A repair function score” value rises from -0.099 to 0.0107.

First: T204H
Second: T204F
The “8OG:A repair function score” value of the first is lower: -0.234 for the first, -0.0751 for the second.

First: E451R
Second: E451D
The “8OG:A repair function score” value of the first is higher: 0.0453 for the first, -0.178 for the second.

First: E451A
Second: E433L
The “8OG:A repair function score” value of the first is lower: -0.0912 for the first, -0.0355 for the second.

Compared with E433A, V65A is lower in “8OG:A repair function score” value: 0.0651 for the first, -0.138 for the second.

Compared with V65G, S55F is higher in “8OG:A repair function score” value: -0.206 for the first, -0.000223 for the second.

First: S55L
Second: R446M
The “8OG:A repair function score” value of the first is lower: -0.149 for the first, -0.121 for the second.

Compared with R446I, P129V is lower in “8OG:A repair function score” value: -0.193 for the first, -0.608 for the second.

First: P129T
Second: P129W
The “8OG:A repair function score” value of the first is lower: -0.491 for the first, -0.109 for the second.

Compared with P129F, Q132N is higher in “8OG:A repair function score” value: -0.742 for the first, -0.0864 for the second.

First: Q132A
Second: S384R
The “8OG:A repair function score” value of the first is higher: 0.059 for the first, -0.115 for the second.

First: S384K
Second: A6M
The “8OG:A repair function score” value of the first is higher: -0.0507 for the first, -0.168 for the second.

Compared with R491A, T436H is higher in “8OG:A repair function score” value: 0.00371 for the first, 0.323 for the second.

Going from E319R to E319I, the “8OG:A repair function score” value falls from 0.0109 to -0.0159.

Going from E319V to Q286W, the “8OG:A repair function score” value rises from -0.0112 to -7.92e-05.

Going from W75A to A220L, the “8OG:A repair function score” value rises from -1.3 to -0.81.

Going from P404C to L134D, the “8OG:A repair function score” value falls from -0.224 to -1.82.

Compared with L134C, Q473R is higher in “8OG:A repair function score” value: -0.394 for the first, 0.00304 for the second.

First: S507D
Second: A254D
The “8OG:A repair function score” value of the first is higher: -0.0424 for the first, -0.87 for the second.

First: Q363N
Second: G497F
The “8OG:A repair function score” value of the first is lower: -0.441 for the first, -0.0315 for the second.

Going from G497D to G248W, the “8OG:A repair function score” value falls from -0.0474 to -0.937.

Going from T346A to P437S, the “8OG:A repair function score” value rises from -0.0694 to -0.0348.

Compared with P437G, G205K is lower in “8OG:A repair function score” value: 0.136 for the first, -0.961 for the second.

Compared with L408E, A345F is higher in “8OG:A repair function score” value: -1.61 for the first, -0.165 for the second.

Going from L109F to L516T, the “8OG:A repair function score” value rises from -0.916 to 0.0209.

First: L516S
Second: H416L
The “8OG:A repair function score” value of the first is higher: 0.0241 for the first, -0.319 for the second.

First: H416K
Second: E350S
The “8OG:A repair function score” value of the first is lower: -0.715 for the first, 0.0422 for the second.

Going from G39A to L396C, the “8OG:A repair function score” value falls from 0.101 to -0.199.

Compared with A67N, W128V is lower in “8OG:A repair function score” value: -0.0206 for the first, -0.224 for the second.

First: A391K
Second: Q159L
The “8OG:A repair function score” value of the first is lower: -0.22 for the first, 0.127 for the second.

First: R389M
Second: G155Q
The “8OG:A repair function score” value of the first is higher: -0.236 for the first, -0.682 for the second.

Going from K422F to A354I, the “8OG:A repair function score” value rises from -0.584 to -0.0486.

Going from F68H to L234N, the “8OG:A repair function score” value rises from -1.1 to -0.855.

First: A137H
Second: S105A
The “8OG:A repair function score” value of the first is lower: -0.568 for the first, -0.0215 for the second.

Going from S105E to A63N, the “8OG:A repair function score” value rises from -0.676 to -0.101.

First: A63E
Second: V47T
The “8OG:A repair function score” value of the first is higher: -0.00911 for the first, -0.0192 for the second.

Compared with R175C, E140I is lower in “8OG:A repair function score” value: -0.0695 for the first, -0.242 for the second.

First: E140V
Second: W381H
The “8OG:A repair function score” value of the first is lower: -0.181 for the first, 0.26 for the second.

Going from Y151Q to G170C, the “8OG:A repair function score” value rises from -0.672 to -0.00944.

Going from G170Y to D300R, the “8OG:A repair function score” value falls from -0.062 to -0.291.

First: D300N
Second: D300I
The “8OG:A repair function score” value of the first is higher: -0.0764 for the first, -0.191 for the second.

Going from S136Y to S136H, the “8OG:A repair function score” value falls from 0.0366 to -0.136.

First: Q484E
Second: Q484R
The “8OG:A repair function score” value of the first is higher: 0.022 for the first, 0.00822 for the second.

Compared with G150F, G150P is higher in “8OG:A repair function score” value: -1.66 for the first, -1.54 for the second.

Going from R157W to R157K, the “8OG:A repair function score” value falls from -0.0111 to -0.0295.

Compared with C272L, E395N is higher in “8OG:A repair function score” value: -1.26 for the first, -0.302 for the second.

First: E395W
Second: E64W
The “8OG:A repair function score” value of the first is higher: -0.193 for the first, -0.219 for the second.

Compared with E64F, V207W is higher in “8OG:A repair function score” value: -1.97 for the first, -0.834 for the second.

Compared with V206A, Q181P is lower in “8OG:A repair function score” value: -0.219 for the first, -0.726 for the second.

Compared with W447C, W447A is higher in “8OG:A repair function score” value: -1.09 for the first, -0.968 for the second.

Compared with W447Q, W447F is higher in “8OG:A repair function score” value: -1.16 for the first, -0.355 for the second.

Compared with R87H, C477A is higher in “8OG:A repair function score” value: -0.0676 for the first, -0.00821 for the second.

Going from S483V to P494V, the “8OG:A repair function score” value falls from 0.0104 to -0.0025.

Compared with R467Y, R467P is lower in “8OG:A repair function score” value: -0.0417 for the first, -0.876 for the second.

First: R467L
Second: G222I
The “8OG:A repair function score” value of the first is higher: -0.0425 for the first, -0.608 for the second.

Compared with F505C, F505G is lower in “8OG:A repair function score” value: 0.0238 for the first, 0.00871 for the second.

Compared with F505M, Y190P is lower in “8OG:A repair function score” value: -0.0487 for the first, -0.905 for the second.

Compared with P299E, R156V is lower in “8OG:A repair function score” value: -0.036 for the first, -0.117 for the second.

Compared with A203C, G444V is lower in “8OG:A repair function score” value: -0.101 for the first, -0.448 for the second.

D133Y was tested, and the “8OG:A repair function score” value was -0.727.
